In patent publication US20220389097A1 (Genentech, published 2022):
Residue numbers refer to the chain shown, from its start. Names may count otherwise. Values belong to the binder of their own block, whether it stands above or below them. Where no end group is shown, it is not given here.

Assays:
[1] = target: T1, soluble human TREM2 (sTREM2) (human, UniProt Q9NZC2 19-157); assay: sandwich ELISA: antibody coated as capture, sTREM2 from BMDM supernatant, biotinylated 3.17A9 detection
T1 construct: also called soluble TREM2; TREM2 ectodomain
T1 sequence: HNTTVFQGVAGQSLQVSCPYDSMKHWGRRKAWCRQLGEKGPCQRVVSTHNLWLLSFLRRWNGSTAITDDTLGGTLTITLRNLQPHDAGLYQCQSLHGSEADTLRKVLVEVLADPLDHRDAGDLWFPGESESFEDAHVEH
Description: A human TREM2 ELISA assay was used to measure binding of more than forty antibodies to soluble TREM2 (sTREM2) as follows: test anti-hTREM2 antibodies were coated onto plate wells as capture reagents and a biotinylated IgV-reactive monoclonal antibody, 3.17A9, was used as the detection reagent. Antibody 1.16B8 was used as a control antibody to establish the standard for sTREM2 binding. Plates coated with test or control antibody were incubated with diluted culture supernatant from bone marrow-derived macrophage (BMDM) cultures from transgenic mice expressing hTREM2. sTREM2 is constitutively produced by the BMDM cultures expressing hTREM2 and shed into the culture supernatant. Measurements were recorded at 450 nm for detection and 570 nm for background. The 3.17A9/1.16B8 antibody pair was selected over reagents provided in the R&D Systems kit as the commercial reagents were not compatible with sTREM2 detection of some of the antibodies tested. Control antibody 1.16B8 light chain sequence is shown in SEQ ID NO: 170, and its heavy chain sequence is shown in SEQ ID NO: 171.

human TREM2 on cells [2] = target: T2, human TREM2 on cells (human, UniProt Q9NZC2 19-230); assay: cell-based or functional assay
T2 sequence: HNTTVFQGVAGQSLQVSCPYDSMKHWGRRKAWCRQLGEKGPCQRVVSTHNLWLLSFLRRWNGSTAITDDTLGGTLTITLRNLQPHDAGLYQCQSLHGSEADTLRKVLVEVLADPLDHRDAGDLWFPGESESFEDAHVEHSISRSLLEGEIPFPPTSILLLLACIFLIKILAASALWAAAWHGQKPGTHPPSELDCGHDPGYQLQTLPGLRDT

human TREM2 on cells [3] = target: T2, human TREM2 on cells; assay: cell-based or functional assay; remark: listed apart in the source
[4] = target: T3, TREM2 peptide residues 148 to 165 (human); assay: crystal structure of the complex
T3 construct: Peptide of the crystal structures
T3 peptide: ESFEDAHVEHSISRSLLE

[5] = target: T4, soluble monomeric human TREM2 (human, UniProt Q9NZC2 19-174, limits assumed); assay: SPR (Biacore 8K) at 37 C, mutant IgG captured on anti-human Fab chip, soluble monomeric TREM2 as analyte, off-rate screen
T4 construct: Not the same as shed sTREM2; also called soluble monomeric TREM2
T4 sequence: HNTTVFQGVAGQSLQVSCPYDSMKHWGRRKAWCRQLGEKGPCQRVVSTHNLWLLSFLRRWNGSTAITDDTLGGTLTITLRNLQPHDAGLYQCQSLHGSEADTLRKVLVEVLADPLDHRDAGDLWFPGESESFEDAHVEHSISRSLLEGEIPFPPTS

152-161 = target: T5, 152-161 (also: biotinylated (site not given here)); assay: ELISA: biotinylated peptide captured on streptavidin plate, antibody detected with anti-mouse IgG-HRP
T5 construct: member of the group m13
T5 peptide: DAHVEHSISR
From the text: (§1) The antibody epitopes were mapped to the stalk region of human TREM2 using enzyme-linked immunosorbent assay (ELISA). Overlapping biotinylated peptides were captured in ELISA plates coated with streptavidin. The binding of antibodies to peptides was detected with an anti-mouse IgG conjugated to horseradish peroxidase.

154-164 = target: T6, 154-164 (also: biotinylated (site not given here)); assay: as above
T6 construct: member of the group m13; also called hTREM2 stalk 154-164
T6 peptide: HVEHSISRSLL
From the text: as §1

[6] = target: T7, hTREM2 stalk peptide 146-169 (human, biotinylated); assay: as above
T7 peptide: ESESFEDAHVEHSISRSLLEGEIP
From the text: as §1

[7] = target: T8, hTREM2 stalk peptide residues 129-175 (human, biotinylated); assay: as above
T8 construct: also called human TREM2 stalk peptide
T8 peptide: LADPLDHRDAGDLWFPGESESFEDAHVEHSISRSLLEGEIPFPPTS
From the text: as §1

[8] = target: T9, hTREM2 stalk peptide 146-161 (human, also: biotinylated (site not given here)); assay: as above
T9 peptide: ESESFEDAHVEHSISR
From the text: as §1

159-175 = target: T10, 159-175 (also: biotinylated (site not given here)); assay: as above
T10 construct: member of the group m13
T10 peptide: ISRSLLEGEIPFPPTSI
From the text: as §1

129-148 = target: T11, 129-148 (biotinylated (site not given)); assay: as above
T11 construct: member of the group m13
T11 peptide: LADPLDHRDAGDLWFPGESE
From the text: as §1

[9] = target: T12, hTREM2 stalk peptide 149-168 (human, biotinylated); assay: as above
T12 peptide: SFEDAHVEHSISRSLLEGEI
From the text: as §1

[10] = target: T13, hTREM2 stalk peptide 151-165 (human, also: biotinylated (position not given here)); assay: as above
T13 peptide: EDAHVEHSISRSLLE
From the text: as §1

155-169 = target: T14, 155-169 (also: biotinylated (site not given here)); assay: as above
T14 construct: member of the group m13
T14 peptide: VEHSISRSLLEGEIP
From the text: as §1

139-158 = target: T15, 139-158 (biotinylated (site not given)); assay: as above
T15 construct: member of the group m13
T15 peptide: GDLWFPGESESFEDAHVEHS
From the text: as §1

hTREM2 stalk antigen = target: T16, hTREM2 stalk antigen (human, UniProt Q9NZC2 129-174); assay: SPR (Biacore T200), 37 C; TREM2 stalk antigen on anti-human IgG1 Fc chip, antibody in solution
T16 construct: also called human TREM2 stalk
T16 chain: T8 peptide
Description: (§2) Forty-six rat anti-human antibodies were tested for binding affinity to the hTREM2 and cynomolgus TREM2 stalk. Antibody binding affinities for hTREM2 stalk and cynomolgus TREM2 stalk were measured by surface plasmon resonance (SPR) using a Biacore™ T200 apparatus. TREM2 stalk antigens (human or cynomolgus) were immobilized on anti-human IgG1 Fc Biacore™ chips and anti-TREM2 antibody clones were bound to immobilized TREM2 at 37° C. Binding affinities, KD (nM) were measured and recorded.
(§3) Several antibodies were selected for binding measurements against cynomolgus TREM2 stalk. […] These four antibodies are referred to collectively below as the “3.10C2 group” of antibodies.

[11] = target: T17, cynomolgus TREM2 stalk antigen (cynomolgus monkey, UniProt A0A2K5UY34 159-204, not fully specified); assay: as above
T17 construct: domain: stalk
T17 chain: T8 peptide with F15V
Description: as §2, §3

[12] = target: T4, soluble monomeric human TREM2; assay: SPR (Biacore 8K); mutant IgG on anti-human Fab chip, soluble monomeric TREM2
From the text: The resulting library consists of individual IgG clones, each with one mutation per molecule in the heavy chain variable regions. Clones were screened for off-rate (dissociation rate) by SPR in a Biacore™ 8K instrument using anti-human Fab chips to capture mutant IgGs and soluble monomeric TREM2 as ligand.

B1: control antibody 1.16B8 (antibody, mouse IgG2a, kappa, V domains shown)
VH: EVQLVESGGGLVQPGRSLKLSCAASGFTFSDSAMAWVRQAPKKGLEWVATIIYDTSSTYYRDSVKGRFTISRDNAKSTLYLQMDSLRSEDTATYYCALFGVDVMDAWGQGASVTVSS
VL: DIQMTQTPSSMPASLGERVTISCRASQGISNYLNWYQQKPDGTIKPLIYYTSNLQSGVPSRFSGSGSGTDYSLTISSLEPEDFAMYYCQQYDSSPWTFGGGTKLEIKR
notes: also called CTL; 1.116B8
binding result [1]: binds

B3: h3.10C2.v1 Q100P (antibody, V domains shown)
VH: EVQLVESGGGLVQPGGSLKLSCATSGFPFSNVWMHWVRQASGKGLEWIAHIKAKSDNYATYYAESVKGRFTISRDDSKTTIYLQMNSLKTEDTAVYYCTGLDYWGQGTTVTVSS
VL: DVVMTQSPLSLPVTPGEPASISCRSSRSLLTSKGITSLYWYLQKPGQSPQLLIYRMSNLASGIPDRFSGSGSGTDFTLKISRVEAEDVGVYYCAQFLVYPYTFGPGTKVEIK
notes: also called hu3.10C2.v1 Q100P
binding result [4]: binds

B4: T93H (antibody, V domains shown)
VH: EVQLVETGGSLVQPGKSLKLTCATSGFPFSNVWMHWVRQSPEKQLEWIAHIKAKSDNYATYYAESVKGRFTISRDDSKTSIYLQMNSLKEDDTAIYYCHGLDYWGQGVMVTVSS
VL: DTVLTQAPLSLSVTPGESASISCRSSKSLLGVRDITSLYWYLQKPGKSPQLLIYRMSNLASGVPDRFSGSGSETDFTLKISEVETEDVGVYYCAQFLRYPYTFGPGTKLELK
fold improvement (lower dissociation rate kd) relative to wild-type 3.10C2 [5]: 1.4 fold

B6: 3.18E5 (rat anti-human TREM2 antibody) (antibody, IgG2a, V domains shown)
VH: B4 VH with S80T, D91A, H99T
VL: B4 VL with L11V, S26N, V32I
notes: Whole IgG
A620 absorbance (ELISA) (152-161): 0.15 A620
A620 absorbance (ELISA) (154-164): 0.4 A620
A620 absorbance (ELISA) [6]: 1.48 A620
A620 absorbance (ELISA) [7]: 1.65 A620
A620 absorbance (ELISA) [8]: 2.89 A620
A620 absorbance (ELISA) (159-175): 0.07 A620
A620 absorbance (ELISA) (129-148): 0.28 A620
A620 absorbance (ELISA) [9]: 1.46 A620
A620 absorbance (ELISA) [10]: 2.42 A620
A620 absorbance (ELISA) (155-169): 0.14 A620
A620 absorbance (ELISA) (139-158): 0.51 A620
Kd (hTREM2 stalk antigen): 0.26 nM
Kd [11]: 0.3 nM

Now from value to binder, other results behind:

EC50, average X04 plaque intensity, human iPSC-derived microglia plaque assay (FIG. 24C) (human TREM2 on cells [2]): 500 nM
EC50, total Abeta plaque intensity, human iPSC-derived microglia plaque assay (FIG. 24B) (human TREM2 on cells [2]): 120 nM
EC50, Jurkat NFAT luciferase reporter cells (human TREM2 on cells [3]): 0.0178 µg/mL
IC50, TREM2 shedding inhibition in Jurkat-NFAT reporter cells (sTREM2 ELISA) (human TREM2 on cells [3]): 0.123 µg/mL
binding result [4]: binds
B2: hPara.09.v2 Q100P (antibody, V domains shown)
VH: EVQLVESGGGLVQPGGSLKLSCATSGFPFSNVWLHWVRQASGKGPEWVAHIKAKSDNYATYYAESVKGRFTISRDDSKNTVYLQMNSLKTEDTAVYYCTDILEYWGQGTLVTVSS
VL: B3 VL
notes: Human IgG1 N297G in the cell assays; also called huPara.09.v2 Q100P; hPara.09 Q100P
EC50, survival of iPSC-derived microglia (FIG. 23E) (human TREM2 on cells [2]): 0.61 nM

fold improvement (lower dissociation rate kd) relative to wild-type 3.10C2 [5]: 2 fold
B5: T93E (antibody, V domains shown)
VH: B4 VH with H99E
VL: B4 VL

A620 absorbance (ELISA) (152-161): 0.12 A620
A620 absorbance (ELISA) (154-164): 0.39 A620
A620 absorbance (ELISA) [6]: 1.65 A620
A620 absorbance (ELISA) [7]: 1.91 A620
A620 absorbance (ELISA) [8]: 2.95 A620
A620 absorbance (ELISA) (159-175): 0.07 A620
A620 absorbance (ELISA) (129-148): 0.19 A620
A620 absorbance (ELISA) [9]: 2.16 A620
A620 absorbance (ELISA) [10]: 2.52 A620
A620 absorbance (ELISA) (155-169): 0.13 A620
A620 absorbance (ELISA) (139-158): 0.37 A620
Kd (hTREM2 stalk antigen): 0.24 nM
Kd [11]: 0.25 nM
B7: 3.10C2 (rat anti-human TREM2 antibody) (antibody, V domains shown)
VH: B4 VH with H99T
VL: B4 VL
notes: Whole IgG with rat variable regions; also called clone 3.10C2

A620 absorbance (ELISA) (152-161): 0.14 A620
A620 absorbance (ELISA) (154-164): 0.26 A620
A620 absorbance (ELISA) [6]: 1.88 A620
A620 absorbance (ELISA) [7]: 2.13 A620
A620 absorbance (ELISA) [8]: 2.52 A620
A620 absorbance (ELISA) (159-175): 0.08 A620
A620 absorbance (ELISA) (129-148): 0.19 A620
A620 absorbance (ELISA) [9]: 1.28 A620
A620 absorbance (ELISA) [10]: 2.32 A620
A620 absorbance (ELISA) (155-169): 0.13 A620
A620 absorbance (ELISA) (139-158): 0.43 A620
Kd (hTREM2 stalk antigen): 0.61 nM
Kd [11]: 0.57 nM
B8: 3.50G1 (rat anti-human TREM2 antibody) (antibody, IgG2a, V domains shown)
VH: B4 VH with E90D, H99T
VL: B4 VL with L11V, S26N, V32I, Y41F, K112Q
notes: Whole IgG

binding result [12]: no binding
B9: 3.10C2 D101E mutant IgG (antibody, name in Kabat numbering, V domains shown)
VH: B4 VH with H99T, D102E
VL: B4 VL
notes: IgG captured on anti-human Fab chip
